These results are taken from patent US20040224337.

The target in data set [1] is FAS (UniProt P25445).
Data set [2] has as its system FASpTyr275 peptide (Biotin-KKEAY(PO3)DTLI-COOH).

UniProt P25445, sequence (P25445 26-335): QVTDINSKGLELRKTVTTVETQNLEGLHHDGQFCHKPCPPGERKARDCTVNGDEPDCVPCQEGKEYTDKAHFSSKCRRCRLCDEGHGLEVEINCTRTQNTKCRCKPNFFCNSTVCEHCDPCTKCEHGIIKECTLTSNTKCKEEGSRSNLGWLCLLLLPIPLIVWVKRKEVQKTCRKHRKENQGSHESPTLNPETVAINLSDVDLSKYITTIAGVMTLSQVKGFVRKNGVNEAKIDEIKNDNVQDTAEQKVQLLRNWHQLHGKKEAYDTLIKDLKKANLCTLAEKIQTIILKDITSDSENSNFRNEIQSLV

PTPL1/FAP-1: the “tyrosine phosphorylation of immunoprecipitated FAS (PY20-HRP blot after incubation in phosphatase reaction buffer)” value in data set [1] is “endogenous FAP-1 dephosphorylates FAS”. Moreover, in data set [2], the “in vitro phosphatase assay (dephosphorylation relative to vector as percent activity)” value was “FAP-1 immunoprecipitated from overexpressing cells dephosphorylates the biotinylated phospho-peptide (FASpY275) in an in vitro phosphatase assay”.
